# Results: US20060105398A1, “Methods of identifying compounds that modulate igg mediated mast cell activation” (Rigel Pharmaceuticals, Inc, priority 2002, published 2006)
# Tested on: FcγRI activation of cultured human mast cells (CHMC)
# Assay: Priming of mast cells, tryptase activity in supernatant after Fcγ activation with IgG and anti-IgG
# Assay type: cell-based
# Conditions: IL-4 absent or present in priming solution; IgE primed mast cells; human IgG3 and rabbit anti-human IgG (FIG. 1A, 1B)
# Procedure: Priming of mast cells is carried out by seeding the cells on Day 0 at 3.5×10^5 cells/mL in culture media plus SCF (200 ng/mL), IL-6 (200 ng/mL), IL-4 ([…]), IgE (200 ng/mL), and IgG3 (200 ng/mL).
# Activation or stimulation of cells is done on Day 3 by centrifuging the cells down and resupending them at 1.5×10^3 cells/mL in modified tyrodes (MT: 137 mM NaCl, 2.7 mM KCI, 1.8 mM CaCl2, 5.6 mM glucose, 20 mM Hepes (pH 7.4), 0.1% Bovine Serum Albumin (Sigma A4503)), with or without rabbit anti-human IgG (200 ng/mL final conc.), for 30 minutes at 37° C. (see Demo, S. D., Cytometry. 36(4):340-348 (1999)).
# Degranulation is measured by centrifuging down the sample, and harvesting the supernatant and measuring tryptase activity. The tryptase assays are performed under standard conditions (25 uL supernatant added to 100 uL of 10 uM tryptase substrate [20 mM stock solution of Z-Ala-Lys-Arg-AMC2TFA (Enzyme systems Products, Catalog No. AMC-246) diluted 1:2000 in tryptase assay buffer [[…] (pH 7.5), 10% w/v Glycerol, […], 0.01% NaN3] for 30 min at 37° C. The reactions are read in plate reader (Wallac, Victor 2, 1420 Multilabel Counter).
substance,measurement,value
IL-4: cytokine added to the priming solution (20 ng/mL),effect on activation (tryptase activity in the supernatant),did not appear to substantially affect activation
